Source: the Human Domainome abundance scans (Beltran et al. 2025)

B1: Protein C-ets-1, residues 55 to 135; numbered along this chain, P14921 (parent)
chain: GFTKEQQRLGIPKDPRQWTETHVRDWVMWAVNEFSLKGVDFQKFCMNGAALCALGKDCFLELAPDFVGDILWEHLEILQKE

Variants of: B1
Assay: abundance fitness (aPCA) (normalised: wild type 0, dead -1); higher = more abundant; growth selection in yeast, the domain comes from the species named
Settings: Homo sapiens

Abundance fitness of substitutions, site by site:
L36: A -0.52 | D -0.763 | N -0.691 | I -0.215 | E -1 | S -0.751 | F -0.139 | G -0.661 | K -0.58 | T -0.697 | V -0.276 | Q -0.624 | R -1.05 | P -0.725 | M -0.343 | Y -0.539 | W -0.29 | C -0.332
S35: K -0.012 | T -0.034 | G 0.012 | V -0.381 | P -0.625 | Q 0.062 | F -0.413 | W -0.559 | Y -0.288 | C -0.072 | D 0.017 | A -0.069 | M -0.142 | L -0.364 | R -0.029 | I -0.539 | N -0.178
W29: S -0.395 | E -0.561 | N -0.586 | T -0.515 | D -0.685 | A -0.415 | K -0.659 | C -0.364 | R -0.489 | G -0.492 | I -0.803 | Q -0.59 | V -0.767
K43: M -0.315 | D -0.2 | Y -0.351 | H -0.187 | G -0.289 | C -0.206 | T -0.302 | F -0.494 | S -0.185 | N -0.049 | R -0.007 | Q -0.086 | E -0.283 | I -0.424 | V -0.425
Q42: T -0.052 | N -0.047 | C -0.259 | D -0.029 | M -0.237 | V -0.358 | R -0.017 | P -0.214 | H -0.068 | K -0.075 | E 0.021 | Y -0.291 | F -0.664 | W -0.681 | G 0.007 | L -0.307 | A -0.071 | S -0.007 | I -0.619
D40: Y -0.651
